Our source for the protein stability index values is the supplement of paper PMC10567573.

B1: GLTSCR2 (parent)
chain: YNPSFEDHQTLLSAAHEVELQRQK
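Note: lentivirally expressed fusions sorted by FACS into six bins by GFP to DsRed ratio, PSI derived from sequencing read proportions per bin multiplied by bin number.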

The variants in the data set derive from B1. As to the kind of experiment: protein stability index of a GFP-peptide fusion (GPS, HEK-293T) (PSI 1-6); higher = more stable. The note with it: c terminus: a fixed tail appended.
In the case of YNPSFEDHQTLLSAAHELELQRQK [V18L], the protein stability index is 3.69.

For YNPSFEDHQTLLSAAHEIELQRQK [V18I], the protein stability index stood at 3.67.

For the variant YNPSFEDHQTLLSAAHEAELQRQK [V18A], the protein stability index stood at 4.

For the variant YNPSFEDHQTLLSAAHEPELQRQK [V18P], the protein stability index was 4.41.

On to YNPSFEDHQTLLSAAHEHELQRQK [V18H], for which the protein stability index came out at 3.28.

Turning to YNPSFEDHQTLLSAAHEKELQRQK [V18K], the protein stability index was 4.14.

In the case of YNPSFEDHQTLLSAAHEWELQRQK [V18W], the protein stability index was 2.54.

As for YNPSFEDHQTLLSAAHEGELQRQK [V18G], the protein stability index worked out at 3.79.

With YNPSFEDHQTLLSAAHERELQRQK [V18R], the protein stability index was found to be 3.43.

Consider YNPSFEDHQTLLSAAHENELQRQK [V18N], for which the protein stability index came to 3.8.

For YNPSFEDHQTLLSAAHEVELQDQK [R22D], the protein stability index came out at 4.84.

As to YNPSFEDHQTLLSAAHEVELQPQK [R22P], the protein stability index came to 4.21.

As for YNPSFEDHQTLLSAAHEVELQLQK [R22L], the protein stability index amounted to 3.18.

With YNPSFEDHQTLLSAAHEVELQIQK [R22I], the protein stability index amounted to 2.91.

YNPSFEDHQTLLSAAHEVELQEQK [R22E]: the protein stability index is 4.69.

As to YNPSFEDHQTLLSAAHEVELQHQK [R22H], the protein stability index is 3.99.

YNPSFEDHQTLLSAAHEVELQRQG [K24G]: the protein stability index is 3.78.

For YNPSFEDHQTLLSAAHEVELQRQI [K24I], the protein stability index worked out at 3.33.

Take YNPSFEDHQTLLSAAHEVELQRQV [K24V]: the protein stability index was determined as 3.31.

Regarding YNPSFEDHQTLLSAAHEVELQRQF [K24F], the protein stability index came out at 2.66.

On to YNPSFEDHQTLLSAAHEVELQRQN [K24N], for which the protein stability index came to 3.96.

Turning to YNPSFEDHQTLLSAAHEVELQRQH [K24H], the protein stability index worked out at 3.23.

As to YNPSFEDHQTLLSAAHEVELQRQW [K24W], the protein stability index was 2.79.

Take YNPSFEDLQTLLSAAHEVELQRQK [H8L]: the protein stability index amounted to 2.22.

Consider YNPSFEDMQTLLSAAHEVELQRQK [H8M], for which the protein stability index came out at 2.72.

As for YNPSFEDVQTLLSAAHEVELQRQK [H8V], the protein stability index came to 2.33.

On to YNPSFEDYQTLLSAAHEVELQRQK [H8Y], for which the protein stability index worked out at 1.54.

As to YNPSFEDWQTLLSAAHEVELQRQK [H8W], the protein stability index was found to be 1.88.

In the case of YNPSFEDPQTLLSAAHEVELQRQK [H8P], the protein stability index came to 3.86.

Regarding YNPSFEDSQTLLSAAHEVELQRQK [H8S], the protein stability index was found to be 4.2.

On to YNPSFEDCQTLLSAAHEVELQRQK [H8C], for which the protein stability index came to 2.67.

For the variant YNPSFEDAQTLLSAAHEVELQRQK [H8A], the protein stability index was 3.79.

For the variant YKPSFEDHQTLLSAAHEVELQRQK [N2K], the protein stability index was determined as 4.28.

On to YIPSFEDHQTLLSAAHEVELQRQK [N2I], for which the protein stability index was 3.38.

In the case of YQPSFEDHQTLLSAAHEVELQRQK [N2Q], the protein stability index is 4.47.

On to YCPSFEDHQTLLSAAHEVELQRQK [N2C], for which the protein stability index worked out at 2.74.

With YRPSFEDHQTLLSAAHEVELQRQK [N2R], the protein stability index was 4.29.

As to YDPSFEDHQTLLSAAHEVELQRQK [N2D], the protein stability index is 5.66.

Consider YSPSFEDHQTLLSAAHEVELQRQK [N2S], for which the protein stability index worked out at 3.91.

For the variant YPPSFEDHQTLLSAAHEVELQRQK [N2P], the protein stability index stood at 4.76.

Consider YLPSFEDHQTLLSAAHEVELQRQK [N2L], for which the protein stability index was 5.05.

Consider YNPKFEDHQTLLSAAHEVELQRQK [S4K], for which the protein stability index amounted to 4.17.

Consider YNPNFEDHQTLLSAAHEVELQRQK [S4N], for which the protein stability index worked out at 4.48.

Take YNPTFEDHQTLLSAAHEVELQRQK [S4T]: the protein stability index worked out at 3.79.

Take YNPDFEDHQTLLSAAHEVELQRQK [S4D]: the protein stability index stood at 4.72.

Take YNPGFEDHQTLLSAAHEVELQRQK [S4G]: the protein stability index was found to be 3.88.

As to YNPAFEDHQTLLSAAHEVELQRQK [S4A], the protein stability index stood at 4.1.

For the variant YNPYFEDHQTLLSAAHEVELQRQK [S4Y], the protein stability index amounted to 4.27.

Take YNPRFEDHQTLLSAAHEVELQRQK [S4R]: the protein stability index came to 4.65.

For YNPCFEDHQTLLSAAHEVELQRQK [S4C], the protein stability index worked out at 4.07.

For the variant YNPSFEDHQTLLSNAHEVELQRQK [A14N], the protein stability index worked out at 4.04.

As to YNPSFEDHQTLLSSAHEVELQRQK [A14S], the protein stability index came out at 4.2.

In the case of YNPSFEDHQTLLSIAHEVELQRQK [A14I], the protein stability index turned out to be 3.02.

For the variant YNPSFEDHQTLLSGAHEVELQRQK [A14G], the protein stability index was found to be 3.52.

As to YNPSFEDHQTLLSKAHEVELQRQK [A14K], the protein stability index was found to be 3.92.

Turning to YNPSFEDHQTLLSEAHEVELQRQK [A14E], the protein stability index was 4.63.

Consider YNPSFEDHQTLLSWAHEVELQRQK [A14W], for which the protein stability index is 2.51.

Regarding YNPSFEDHQTLLSMAHEVELQRQK [A14M], the protein stability index was found to be 3.62.

With YNPSFEDHQTLLSFAHEVELQRQK [A14F], the protein stability index is 2.53.

Regarding YNPSFEDHQTLLSCAHEVELQRQK [A14C], the protein stability index amounted to 2.53.

Turning to YNPSFEDHQTLLWAAHEVELQRQK [S13W], the protein stability index was determined as 1.51.

Consider YNPSFEDHQTLLYAAHEVELQRQK [S13Y], for which the protein stability index is 2.75.

Regarding YNPSFEDHQTLLQAAHEVELQRQK [S13Q], the protein stability index worked out at 3.66.

For the variant YNPSFEDHQTLLFAAHEVELQRQK [S13F], the protein stability index was determined as 2.66.

Regarding YNPSFEDHQTLLLAAHEVELQRQK [S13L], the protein stability index is 2.9.

Consider YNPSFEDHQTLLRAAHEVELQRQK [S13R], for which the protein stability index stood at 2.56.

For the variant YNPSFEDHQTLLVAAHEVELQRQK [S13V], the protein stability index is 3.2.

In the case of YNPSFEDHQTLLSAASEVELQRQK [H16S], the protein stability index came to 4.45.

In the case of YNPSFEDHQTLLSAACEVELQRQK [H16C], the protein stability index was 3.28.

For YNPSFEDHQTLLSAAQEVELQRQK [H16Q], the protein stability index was 3.48.

With YNPSFEDHQTLLSAAAEVELQRQK [H16A], the protein stability index stood at 3.64.

As to YNPSFEDHQTLLSAAGEVELQRQK [H16G], the protein stability index came to 4.16.

Turning to YNPSFEDHQTLLSAALEVELQRQK [H16L], the protein stability index came to 3.22.

For YNPSFEDHQTLLSAAMEVELQRQK [H16M], the protein stability index is 3.63.

For YNPSFEDHQTLLSAAFEVELQRQK [H16F], the protein stability index turned out to be 2.91.

Take YNPSFEDHQTLLSAAYEVELQRQK [H16Y]: the protein stability index was found to be 3.34.

YNPSFEDHQTLLSAAREVELQRQK [H16R]: the protein stability index came to 3.2.

Regarding YNPSFEDHQTLLSAAHEVELQRAK [Q23A], the protein stability index was 3.75.

YNPSFEDHQTLLSAAHEVELQRMK [Q23M]: the protein stability index stood at 3.4.

As for YNPSFEDHQTLLSAAHEVELQRFK [Q23F], the protein stability index was 2.56.

Consider YNPSFEDHQTLLSAAHEVELQRNK [Q23N], for which the protein stability index was determined as 3.45.

On to YNPSFEDHQTLLSAAHEVELQRDK [Q23D], for which the protein stability index came to 4.23.

Take YNPSFEDHQTLLSAAHEVELQRIK [Q23I]: the protein stability index came to 3.23.

Regarding YNPSFEDHQTLLSAAHEVELQRPK [Q23P], the protein stability index is 3.96.

For YNPSFEDHQTLLSAAHEVELQRCK [Q23C], the protein stability index is 3.06.

YNPSFEDHQTLLSAAHEVLLQRQK [E19L]: the protein stability index was 2.28.

For the variant YNPSFEDHQTLLSAAHEVKLQRQK [E19K], the protein stability index is 3.25.

Take YNPSFEDHQTLLSAAHEVTLQRQK [E19T]: the protein stability index worked out at 3.5.

Take YNPSFEDHQTLLSAAHEVQLQRQK [E19Q]: the protein stability index was determined as 3.36.

With YNPSFEDHQTLLSAAHEVILQRQK [E19I], the protein stability index stood at 2.85.

YNPSFEDHQTLLSAAHEVNLQRQK [E19N]: the protein stability index came to 3.36.

With YNPSFEDHQTLLSAAHEVGLQRQK [E19G], the protein stability index is 3.8.

For the variant YNPSFEDHQTLLSAAHEVVLQRQK [E19V], the protein stability index worked out at 2.67.

For the variant YNPSFEDHQFLLSAAHEVELQRQK [T10F], the protein stability index was 2.61.
